For orientation: EC50 means the midpoint of the concentration-response curve.

14 molecules from US20250179196A1 (Janssen / Centocor, published 2025) can be followed below.

The target in test [1] is T1, human IL-23R expressed on the cell surface of stably transfected iLite and HEK cell lines (human, UniProt Q5VWK5 24-629).
T1 construct: whole, on cells; Same receptor on two transfected cell lines; the cell line is named under assay; also called human IL-23R iLite cells; human IL-23R HEK cells
T1 sequence (looked up): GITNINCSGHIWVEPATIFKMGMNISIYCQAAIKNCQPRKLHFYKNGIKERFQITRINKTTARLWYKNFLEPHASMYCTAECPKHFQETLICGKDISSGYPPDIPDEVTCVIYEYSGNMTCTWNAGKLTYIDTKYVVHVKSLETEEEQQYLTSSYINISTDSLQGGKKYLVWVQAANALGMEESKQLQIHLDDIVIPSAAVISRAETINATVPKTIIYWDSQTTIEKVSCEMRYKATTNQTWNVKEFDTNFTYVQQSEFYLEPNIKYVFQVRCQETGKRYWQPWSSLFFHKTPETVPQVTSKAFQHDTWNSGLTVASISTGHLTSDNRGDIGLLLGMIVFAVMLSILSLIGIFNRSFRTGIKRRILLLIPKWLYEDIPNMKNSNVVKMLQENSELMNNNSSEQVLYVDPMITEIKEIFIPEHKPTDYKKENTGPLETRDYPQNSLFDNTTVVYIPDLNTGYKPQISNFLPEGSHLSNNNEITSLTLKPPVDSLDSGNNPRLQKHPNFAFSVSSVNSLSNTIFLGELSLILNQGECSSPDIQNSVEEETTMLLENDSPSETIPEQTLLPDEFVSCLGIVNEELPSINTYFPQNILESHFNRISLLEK
The test can be described thus: flow cytometry on human IL-23R HEK cells, Expt D (8-point, 96well). Here is the method: HEK-IL-23R cell concentration response mAb binding (8-point, 96-well assay). […] HEK-IL-23R and HEK-parental cells (12.5 μL of each, 120000 cells total) were plated in 2× replicate on 96-well V-bottom plates (Corning, Cat #3357) into 37° C. warmed Assay medium containing serially diluted IL-23R mAbs to a final volume of 150 μL. IL-23R mAbs were allowed to bind to cells for 30 minutes, at 37° C. […] Cells were next washed twice in ice-cold stain buffer, then resuspended in a final volume of 30 μL with Sytox Green viability dye (ThermoFisher, Cat #S7020). Plates were kept on ice until run for analysis on the iQue. All washes were performed by centrifugation (800 rcf, 3 minutes) followed by flick decantation to remove supernatants. Cell-binding to HEK-IL-23R cells was measured with FlowJo, by gating for single, viable cells and determining the geometric mean fluorescence intensity (MFI) for the 647 detection antibody. Geometric mean fluorescence intensities were plotted over log mAb concentrations fitted with a dose response curve with variable slope using GraphPad Prism.
(In flow cytometry, cells or beads pass a laser one at a time.)

The target in test [2] is T1, human IL-23R expressed on the cell …. Briefly: flow cytometry on human IL-23R HEK cells, Expt E (11-point, 384well). Here is the method:
HEK-IL-23R cell concentration response mAb binding (11-point, 384-well assay). […] IL-23R mAbs were allowed to bind to cells for 30 minutes, at 37° C. […] Cells were next washed twice in ice-cold stain buffer, then resuspended in a final volume of 10 μL with Sytox Green viability dye (ThermoFisher, Cat #S7020). Plates were kept on ice until run for analysis on the iQue. All washes were performed by centrifugation (800 rcf, 3 minutes) followed by automated aspiration to remove supernatants with plate washers. Cell-binding to HEK-IL-23R cells was measured with FlowJo, by gating for single, viable cells and determining the geometric mean fluorescence intensity (MFI) for the 647 detection antibody. Geometric mean fluorescence intensities were plotted over log mAb concentrations fitted with a dose response curve with variable slope using GraphPad Prism.

B1: I23RB74 (antibody, mouse IgG2a, kappa, V domains shown)
VH: DVQLQESGPGLVKPSQSLSLTCSVTGYSITSGYYWNWIRQFPGNKLEWMGYISYDGSFNYNPSLKNRLSITRDTSMNQFFLKLNSVTSEDTATYYCARAEIYYDYDGDFDYWGQGTTLTVSS
VL: DIVLTQSPASLAVSLGQRATISCRASKSVSTSGSNFLHWYQQKPGQPPKLLIYFASNLESGVPARFSGSGSGTDFTLNIHPVEEEDAATYYCQHSRELPHTFGAGTKLELKR
notes: immunization; mouse IgG2a/kappa
The molecule B1 came in with an EC50 in test [1] of 0.3 nM. In test [2], the EC50 stood at 13 nM and the “MFI (6.4 nM)” value amounted to 185000 MFI.

B2: I23RB82 (antibody, mouse IgG2a, kappa, V domains shown)
VH: QVQLKESGPGLVAPSQSLSITCTVSGFSLTNYALHWFRQSPGKGLEWLGVIWSDGSTDYNSPFISRLSISKDNSKSQVFFKMNSLQADDTAIYYCARSRSNYGRWYFDVWGAGTTLTVSS
VL: QIVLSQSHKFMSTSVGDRVSITCKASQDVSTAVAWYQQKPGQSPKLLIYSAFYRYTGVPDRFTGSGSGTDFTFTISSVQAEDLAVYYCQQHYSTPYTFGGGTKLEIKR
notes: as for B1
Consider B2, for which the response in test [1] was half-maximal at 0.6 nM (EC50). For the same molecule, in test [2], the response was half-maximal at 9.8 nM (EC50) and the “MFI (6.4 nM)” value was 181000 MFI.

B3: I23RB39 (antibody, mouse IgG2a, kappa, V domains shown)
VH: EVQLQQSGPELVKPGAPVKISCKASGYTFTNYYIHWVKQRPGQGLEWIGYIYPGNGGTAYNQKFKDKATLTADNPSSTAYMQLSSLTSEDSAVYFCARSRGGSRNYFDYWGQGTTLTVSS
VL: DIQMTQSHKFMSTSVGDRVSITCKASQDVSTAVAWYQQKPGQSPKLLIYSAFYRYTGVPDRFTGSGSGTDFTFTISSVQAEDLAVYYCQQHYSSPRTFGAGTKLELKR
notes: as for B1
Take B3: the EC50 in test [1] is 0.3 nM. In test [2], the EC50 is 3.8 nM and the “MFI (6.4 nM)” value was 277000 MFI.

B4: I23RB81 (antibody, mouse IgG2a, kappa, V domains shown)
VH: DVQLQESGPGLVAPSQSLSITCTVSGFSLTSYAINWVRQPPGKGLEWLGVIWTGGGTNYNSALKSRLSISKDNSKSQLFLKMNSLQTDDTARYYCARNRDYSNYRWYFDVWGAGTSVTVSS
VL: DIVMTQSHKFMSTSVGDRVSIICKASQDVSTAVAWYQQKPGQSPKLLIYSASYRYTGVPDRFTGSGSGTDFTFTISSVQAEDLAVYYCQQHYSTPLTFGAGTRLEIKR
notes: as for B1
Regarding B4, the results for the EC50 in test [1] and in test [2] were 0.9 nM and 7.2 nM, respectively. For the same molecule, the “MFI (6.4 nM)” value in test [2] came to 181000 MFI.

B5: I23RB71 (antibody, mouse IgG2a, kappa, V domains shown)
VH: DVQLQESGPDLVKPSQSLSLTCTVTDYSITRGYNWHWIRQFPGNKLEWMGYIHYSGSTNYNPSLKSRISITRDTSKNQFFLQLNSVTTEDTATYYCARQYGLKAMDYWGQGTSVTVSS
VL: DIVMTQSHKFMSTSVGDRVSITCKASQDVITAVAWYQQKPGQSPKLLIYSASYRYTGVPDRFTGSGSGTDFTFTISSVQAEDLAVYFCQQHFGTPYTFGSGTKLEMKR
notes: as for B1
As for B5, the results for the EC50 in test [1] and in test [2] were around 6.7 nM and 3.4 nM, respectively. For the same molecule, the “MFI (6.4 nM)” value in test [2] amounted to 110000 MFI.

B6: I23RB73 (antibody, mouse IgG2a, kappa, V domains shown)
VH: EVQLQQSGAELVKPGASVKISCKASGYTFTDHAIHWVKQRPEQGLEWIGYISLGNGDIKYSEKFRGKATLTADKTSNTAYMQLNSLTSEDSAVYFCKRSRVLRWTTYWYFDVWGAGTSVTVSS
VL: DIVMTQSHKFMSTSVGDRVSITCKASQDVSTAVAWYQQKPGQSPKLLIYWASTRLTGVPDRFTGSGSGTDYTLTISSVQAEDLALYYCQQYYNTPLTFGAGTKLELKR
notes: as for B1
As for B6, the EC50 in test [1] is 1.8 nM. Also, in test [2], the EC50 stood at 11.6 nM and the “MFI (6.4 nM)” value was 158000 MFI.

B7: I23RB86 (antibody, mouse IgG2a, kappa, V domains shown)
VH: EVQLQQSGAELVKPGASVKLSCKASGYTFTSYWLHWVKQRPGQGLEWIGEIDPSDSYTYYNQKFKGKATLTVDKSSSTAYMQLSSLTSEDSAVYYCARSPYDYDWGAYWGQGTSVTVSS
VL: DIVMTQSPSSMSVSLGDTVSITCHASQGISSNIGWLQQKPGKSFKGLIYHGTNLEDEVPSRFSGSGSGADYSLTIGSLESEDFADYYCVQYAQFPWTFGAGTKLEMKR
notes: as for B1
Take B7: a half-maximal response in test [1] (EC50) required 1.2 nM. In test [2], a half-maximal effect (EC50) was put at 22.8 nM and the “MFI (6.4 nM)” value was 164000 MFI.

B8: I23RB61 (antibody, mouse IgG2a, kappa, V domains shown)
VH: DVQLQESGAELVKPGASVKLSCKSFDYTFTSFDINWMKQRPGQGLEWIGWIFPGSGTTNYNEKFKGKATLTADKSSSTAYMHLTSLTSEDSAVYFCARRLTGTRYFDVWGTGTTLTVSS
VL: DIQMTQSHKFLSTSVGDRITITCKASQDVITAVAWYQQKSGQSPKLLIYWASTRHTGVPDRFTGSGSGTDYTLTISNVQAEDLALYYCQQHYTTPPTFGAGTKLELKR
notes: as for B1
As for B8, in test [1], the EC50 worked out at 0.6 nM. Also, in test [2], the EC50 was above 50 nM and the “MFI (6.4 nM)” value came to 118000 MFI.

B9: I23RB83 (antibody, mouse IgG2a, kappa, V domains shown)
VH: DVQLQESGPGLVAPSQSLSITCTVSGFSLTNYDVHWVRQSPGKGLEWLGVIWSDGSTDYNAAFISRLSFSKDNSKRQVFFKMNSLQPDDTAIYYCARNNYYRYGRNPMDYWGQGTTVTVSS
VL: DIQMTQSPASQSASLGESVTITCLASQTIGSWLAWYQQKPGKSPQLLIYAATSLADGVPSRFSGSGSGTKFSFKISSLQAEDFVSYYCQQLYSSPLTFGGGTKLEIKR
notes: as for B1
Regarding B9, the EC50 in test [1] came out at 0.7 nM. Further, in test [2], the EC50 was 31.5 nM and the “MFI (6.4 nM)” value was found to be 121000 MFI.

B10: I23RB77 (antibody, mouse IgG2a, kappa, V domains shown)
VH: DVQLQESGPGLVAPSQSLSITCTVSGFSLSRYSVHWVRQPPGKGLEWLGMIWGSGSTDYNSALKSRLSINKDNSKSQVFLKMNSLQTDDTAMYYCARVYYGGSPYAMDYWGQGTTVTVSS
VL: DIVMTQSPASLALSLGQRATISCRASESVDSYGNSFMHWYQQKPGQPPKLLIYLASNLESGVPARFSGSGSRTDFTLTIDPVEADDAAIYYCQQNNEEPNTFGAGTKLEMKR
notes: as for B1
Take B10: the concentration for a half-maximal effect (EC50) in test [1] was 0.2 nM. In test [2], the EC50 came out at 4.8 nM and the “MFI (6.4 nM)” value came out at 184000 MFI.

B11: I23RB58 (antibody, mouse IgG2a, kappa, V domains shown)
VH: EVKLVESGGGLVKPGGSLKLSCAASGFSFIIYTMSWVRQTPEKRLEWVAYITSGGGITYYPDSVKGRFTISRDNARNTLYLQMSSLRSEDTAMYYCARHEGDYYDDYYRIGYAMDYWGQGTSVTVSS
VL: DIVMTQTPASLAVSLGQRATISCRASESVDSYGNSFMHWYQQKPGQPPKLLIYRASNLESGIPARFSGSGSRTDFTLTINPVEADDVATYYCQQSNEDPLTFGAGTKLEMKR
notes: as for B1
Consider B11, for which the response in test [1] was half-maximal at 23.1 nM (EC50). For the same molecule, in test [2], the EC50 came to 11.6 nM and the “MFI (6.4 nM)” value is 150000 MFI.

B12: I23RB93 (antibody, mouse IgG2a, kappa, V domains shown)
VH: QVQLKESGPGLVQPSQSLSITCTVSGFSLTSYGVHWVRQSPGKGLEWLGVIWSGVSTDYNAAFISRLSISKDNSKSQVFFKMNSLQADDTAIYYCARSRGSYYFDYWGQGTTLTVSS
VL: DIKMTQSPATLSVTPGDSVSLFCRASQSISNNLHWYQQKSHESPRLLIKYASQSISGIPSRFSGSGSGTDFTLSINSVETEDFGMYFCQQSNSWPLTFGGGTKLEIKR
notes: as for B1
For B12, the EC50 in test [1] was determined as 0.5 nM; in test [2], 8.9 nM. The “MFI (6.4 nM)” value in test [2] came out at 193000 MFI.

B13: I23RB57 (antibody, mouse IgG2a, kappa, V domains shown)
VH: EFQLQQSGPELVKPGASVKMSCKASGYTFTNYYMHWVKQSHGKTIEWIGYIYPNSGDTSYNQKFKGKATLTVDKSSSTAYMELRSLTSEDSAVYNCARFGGFYDAMDYWGQGTSVTVSS
VL: DIVMTQSPAIMSASLGERVTMTCTASSSVSSSYLHWYQQKPGSSPKLWIYSTSNLASGVPARFSGSGSGTSYSLTISSMEAEDAATYYCHQYHRSPFTFGSGTKLEIKR
notes: as for B1
Take B13: the figures for the EC50 in test [1] and in test [2] were 5 nM and above 50 nM, respectively. The “MFI (6.4 nM)” value in test [2] was 99600 MFI.

B14: I23RB60 (antibody, mouse IgG2a, kappa, V domains shown)
VH: DVQLQESGPELVKPGDSVKMSCEASGYTFTDYYIDWVKQSHGKSLEWIGYIYPNNGGISFNQKFEGKATLTVDKSSSTAYMELHSLTSEDSAVYYCAREKLRGRDYWGQGTTLTVSS
VL: DIVMTQSTSSLSASLGDRVTISCRASQDIRNNLNWYQQKPDGTVKLLIFYSSRLHSGVPSRFSGSGSGTDYSLTISNLEQEDIATYFCQQGHTLPWTFGAGTKLELKR
notes: as for B1
Turning to B14, the EC50 in test [1] amounted to 0.6 nM; in test [2], 27.7 nM. In test [2], the “MFI (6.4 nM)” value is 93700 MFI.
